The test system of assay [1] is COP1 WD40 domain. The assay can be described thus: Grating-coupled interferometry (GCI) binding kinetics versus the COP1 WD40 domain. Also on record: species or system Arabidopsis. The conditions noted are these: for Kd: ligand COP1 (2,000 pg/mm^2), analyte pre-monomerized by UV-B, highest concentration 2 μM, 150 mM NaCl, 20 mM HEPES 7.4, 2 mM BME, 25°C, 1:1 binding model, read-out: Kd (dissociation constant), + UV-B. As for the experimental part:
For CRY2 activation, proteins were diluted to their final assay concentrations (as indicated in the figure legends) in Eppendorf tubes and exposed to 10 min of fluorescent light on ice.
The Creoptix WAVE system (Creoptix AG), a label‐free surface biosensor, was used to perform GCI experiments. All experiments were performed on 2PCH or 4PCH WAVEchips (quasi‐planar polycarboxylate surface; Creoptix AG). After a borate buffer conditioning (100 mM sodium borate pH 9.0, 1 M NaCl; Xantec), COP1 (ligand) was immobilized on the chip surface using standard amine‐coupling: 7 min activation [1:1 mix of 400 mM N‐(3‐dimethylaminopropyl)‐N′‐ethylcarbodiimide hydrochloride and 100 mM N‐hydroxysuccinimide (both Xantec)], injection of COP1 (10 μg/ml) in 10 mM sodium acetate pH 5.0 (Sigma) until the desired density was reached, and final quenching with 1 M ethanolamine pH 8.0 for 7 min (Xantec). […] Blank injections were used for double referencing and a dimethyl sulfoxide (DMSO) calibration curve for bulk correction. Analysis and correction of the obtained data were performed using the Creoptix WAVEcontrol software (applied corrections: X and Y offset; DMSO calibration; double referencing), and a one‐to‐one binding model or a heterogenous ligand model with bulk correction was used to fit all experiments.

Assay [2] concerns COP1 WD40 domain. Put plainly: Analytical size-exclusion chromatography binding assay. More on the design: species or system Arabidopsis. The conditions noted are these: Superdex 200 Increase 10/300 GL, ~4 μM per protein, 150 mM NaCl, 20 mM HEPES 7.4, 2 mM BME, protein pre-monomerized by UV-B. As for the experimental part:
500 μl of the respective protein solution or a mixture (~ 4 μM per protein) was loaded sequentially onto the column, and elution at 0.75 ml/min was monitored by UV absorbance at 280 nm.
On the technique in general: In gel filtration, larger molecules generally elute earlier.

“And” between values parts separate entries of the source, which are not always exact repeats. Identical values can stand only once.

B1: CRY2: recombinant full-length Arabidopsis cryptochrome 2 (protein)
chain: MKMDKKTIVWFRRDLRIEDNPALAAAAHEGSVFPVFIWCPEEEGQFYPGRASRWWMKQSLAHLSQSLKALGSDLTLIKTHNTISAILDCIRVTGATKVVFNHLYDPVSLVRDHTVKEKLVERGISVQSYNGDLLYEPWEIYCEKGKPFTSFNSYWKKCLDMSIESVMLPPPWRLMPITAAAEAIWACSIEELGLENEAEKPSNALLTRAWSPGWSNADKLLNEFIEKQLIDYAKNSKKVVGNSTSLLSPYLHFGEISVRHVFQCARMKQIIWARDKNSEGEESADLFLRGIGLREYSRYICFNFPFTHEQSLLSHLRFFPWDADVDKFKAWRQGRTGYPLVDAGMRELWATGWMHNRIRVIVSSFAVKFLLLPWKWGMKYFWDTLLDADLECDILGWQYISGSIPDGHELDRLDNPALQGAKYDPEGEYIRQWLPELARLPTEWIHHPWDAPLTVLKASGVELGTNYAKPIVDIDTARELLAKAISRTREAQIMIGAAPDEIVADSFEALGANTIKEPGLCPSVSSNDQQVPSAVRYNGSKRVKPEEEEERDMKKSRGFDERELFSTAESSSSSSVFFVSQSCSLASEGKNLEGIQDSSDQITTSLGKNGCK
modifications: left off: His10, N-terminal, cleaved | Twin-Strep, N-terminal, cleaved
In the case of B1, the “Binding to the COP1 WD40 domain in the absence of supplemental fluorescent light” value in the assay with COP1 WD40 domain [1] (ligand COP1 (2000 pg/mm2), analyte + no additional light, highest concentration 14 μM) was “No binding was observed”.

B2: UVR8^12–415: UVR8 core with C-terminus extended to include the VP peptide motif, residues 12–415 (protein)
chain: APPRKVLIISAGASHSVALLSGDIVCSWGRGEDGQLGHGDAEDRPSPTQLSALDGHQIVSVTCGADHTVAYSQSGMEVYSWGWGDFGRLGHGNSSDLFTPLPIKALHGIRIKQIACGDSHCLAVTMEGEVQSWGRNQNGQLGLGDTEDSLVPQKIQAFEGIRIKMVAAGAEHTAAVTEDGDLYGWGWGRYGNLGLGDRTDRLVPERVTSTGGEKMSMVACGWRHTISVSYSGALYTYGWSKYGQLGHGDLEDHLIPHKLEALSNSFISQISGGWRHTMALTSDGKLYGWGWNKFGQVGVGNNLDQCSPVQVRFPDDQKVVQVSCGWRHTLAVTERNNVFAWGRGTNGQLGIGESVDRNFPKIIEALSVDGASGQHIESSNIDPSSGKSWVSPAERYAVVPDETG
modifications: left off: His10, N-terminal, cleaved | Twin-Strep, N-terminal, cleaved
In the case of B2, the Kd (in general, the concentration at which binding is half-saturated) at COP1 WD40 domain [1] was 120 nM.

B3: UVR8^12–381: UVR8 β-propeller core, residues 12–381 (protein, UniProt Q9FN03 12-381, looked up, fragment)
chain: APPRKVLIISAGASHSVALLSGDIVCSWGRGEDGQLGHGDAEDRPSPTQLSALDGHQIVSVTCGADHTVAYSQSGMEVYSWGWGDFGRLGHGNSSDLFTPLPIKALHGIRIKQIACGDSHCLAVTMEGEVQSWGRNQNGQLGLGDTEDSLVPQKIQAFEGIRIKMVAAGAEHTAAVTEDGDLYGWGWGRYGNLGLGDRTDRLVPERVTSTGGEKMSMVACGWRHTISVSYSGALYTYGWSKYGQLGHGDLEDHLIPHKLEALSNSFISQISGGWRHTMALTSDGKLYGWGWNKFGQVGVGNNLDQCSPVQVRFPDDQKVVQVSCGWRHTLAVTERNNVFAWGRGTNGQLGIGESVDRNFPKIIEALSVDG
Turning to B3, the “Interaction with the COP1 WD40 domain in size-exclusion chromatography, UV-B-activated” value in the assay with COP1 WD40 domain [2] was “interacts”. Further, the equilibrium dissociation constant (Kd) at COP1 WD40 domain [1] is ~500 nM and 583 nM.

These data come from publication PMC6745501, “Plant photoreceptors and their signaling components compete for COP1 binding via VP peptide motifs” (The EMBO Journal, 2019).
